The chains are these.
B1: R20β-4-A6-IR (peptide)
peptide: RGQSDAFYSGLWALIGLSDG
notes: on phage
B2: A6L-0-E6-IR (peptide)
peptide: YRGMLVLGRSSDGAGKVAFERPARIGQTVFAVNFYDWFV
notes: on phage
B3: 20C-4-C7-IGFR (peptide)
peptide: FFYDCLAALLQGVARYHDLCAVEIT
notes: on phage
B4: H2CA-4-H9-IGFR (peptide)
peptide: RGAVAGFHDQFYDWFDRQVSRVHKFG
notes: on phage
B5: A6L-0-E3-IR (peptide)
peptide: YRGMLVLGRISGGAGKAASERPARIGQKVSAVNFYDWFV
notes: on phage
B6: H2CA-3-C11-IGFR (peptide)
peptide: FRTLAAQHDSFYDWFDRQVSGAAGER
notes: on phage
B7: A6S-2-D11-IR (peptide)
peptide: EAASLGSQDRNFYDWFVRQVV
notes: on phage
B8: M2CA-4-H6-IGFR (peptide)
peptide: VGRASGFPENFYDWFGRQLSLQSGEQ
notes: on phage
B9: H2CA-2-B11-IGFR (peptide)
peptide: AICDAGFHEHFYDWFALQVSDCGRQS
notes: on phage
B10: A6S-2-D1-IR (peptide)
peptide: VERSASSQDGNFYDWFVVQIR
notes: on phage
B11: E4Dα-2-D11-IR (peptide)
peptide: GFREGSFYDWFQAQVT
notes: on phage
B12: A6S-3-E2-IR (peptide)
peptide: TSEVQRRSQDNFYDWFVAQVA
notes: on phage
B13: H2CA-3-E8-IGFR (peptide)
peptide: LGYQEPFQQNFYDWFVRQVSGAENAG
notes: on phage
B14: 20E2B-4-F9-IGFR (peptide)
peptide: QPDHSYFYSLLQELVGSEERL
notes: on phage
B15: 20C-3-G3-IGFR (peptide)
peptide: TFYSCLASLLTGTPQPNRGPWERCR
notes: on phage
B16: 20E2Bβ-4-G6-IR (peptide)
peptide: SQAGSAFYAWFDQVLRTVHSA
notes: on phage
B17: B6Hα-2-D6-IR (peptide)
peptide: GRTMAVMAAGGPDDPFYHKLSELVQGG
notes: on phage
B18: B6Hα-2-C7-IR (peptide)
peptide: RGIVAMVEATEVGSDHDPFYHKLSELVQGS
notes: on phage
B19: B6Hα-1-A2-IR (peptide)
peptide: RGCNDDGGKGWSDDPFYHKLSELICGG
notes: on phage
B20: E2CA-3-E11-IGFR (peptide)
peptide: HLADGQFHEKFYDWFERQISSRCNDC
notes: on phage

In the first test the target is T1, soluble IGF-1R (recombinant human IGF-1R extracellular domain, R&D Systems Cat. # 391-GR/CF) (human, UniProt P08069 31-935).
T1 construct: extracellular domain; Bought protein; coated on plates (phage ELISA, TRF) or Eu-labelled (TR-FRET); also called sIGF-1R; rhIGF-1R
Description: phage ELISA. A general note: In an ELISA, binding on a coated surface is turned into a signal by an enzyme label.
Regarding B1, the ratio over background amounted to 25.9 ratio.

Take B2: the ratio over background was found to be 31 ratio. On the same count and under the same terms, in the case of B3 it was 28 ratio. The same measure, in the same setting: the same measure for B4: 5.6 ratio; for B5: 26 ratio. Same read-out and setting: the same measure for B6: 3.3 ratio; for B7: 37.4 ratio. As for B8, the ratio over background amounted to 10.5 ratio. Turning to B9, the ratio over background is 4.6 ratio. For the molecule B10, the ratio over background stood at 30.6 ratio. Still for that read-out and setting: in the case of B11 it was 11.1 ratio; in that of B12, 24.7 ratio; in that of B13, 6.3 ratio.

For the molecule B14, the ratio over background was found to be 14.7 ratio.

As for B15, the ratio over background was 32.3 ratio.

For the molecule B16, the ratio over background was 6.2 ratio.

A further test addresses T2, soluble human insulin receptor-immunoglobulin heavy chain chimera (human, UniProt P06213 28-956, limits assumed).
T2 construct: extracellular domain; also called sIR-Fc; IR (prepared according to Bass et al., 1996); not shown: immunoglobulin heavy chain constant domains (Bass et al., 1996)
Description: phage ELISA.
For B17, the ratio over background was 1 ratio. Consider B18, for which the ratio over background turned out to be 1 ratio. Turning to B1, the ratio over background was 1.5 ratio.

Turning to B19, the ratio over background came to 1 ratio. The same measure, in the same setting: the same measure for B20: 1 ratio; for B2: 1.8 ratio. On to B3, for which the ratio over background was 1.3 ratio.

Consider B6, for which the ratio over background turned out to be 1.6 ratio.

For the molecule B7, the ratio over background turned out to be 13.5 ratio. B8: the ratio over background is 0.7 ratio. For the molecule B9, the IR/IGF-1R ratio comparison was 0.3 ratio and the ratio over background worked out at 1.6 ratio. As to B10, the ratio over background was 12 ratio. Regarding B11, the ratio over background turned out to be 3.3 ratio.

In the case of B12, the ratio over background was determined as 9.8 ratio. Same read-out and setting: the same measure for B13: 2.2 ratio. Same read-out and setting: in the case of B15 it was 1.2 ratio.

(Values after patent US20040023887A1 (published 2004).)
